# In patent US20230265192A1:
# Assays:
# Assay in all cases: cell-based or functional assay
# [1] = target: human FcγRIIa, low-affinity R131 variant, on Jurkat/NFAT-Luc effector cells (human) (UniProt P12318)
# [2] = target: mouse FcγRIV on Jurkat/NFAT-Luc effector cells (mouse)
# [3] = target: human FcγRIIb on Jurkat/NFAT-Luc effector cells (human) (UniProt P31994)
# [4] = target: mouse FcγRIII on Jurkat/NFAT-Luc effector cells (mouse) (UniProt P08508)
# [5] = target: human FcγRIIa, high-affinity H131 variant, on Jurkat/NFAT-Luc effector cells (human) (UniProt P12318)
# Sequence of human FcγRIIa, high-affinity H131 variant, on Jurkat/NFAT-Luc effector cells (human) (P12318 34-317, change not shown): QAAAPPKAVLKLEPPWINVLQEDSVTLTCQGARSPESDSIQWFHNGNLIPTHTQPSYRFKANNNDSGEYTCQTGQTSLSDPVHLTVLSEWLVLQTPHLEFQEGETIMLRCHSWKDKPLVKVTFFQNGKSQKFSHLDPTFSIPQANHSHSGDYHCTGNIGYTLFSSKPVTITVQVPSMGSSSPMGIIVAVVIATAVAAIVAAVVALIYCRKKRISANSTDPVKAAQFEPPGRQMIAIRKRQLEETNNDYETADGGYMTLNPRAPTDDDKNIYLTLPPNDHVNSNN
# Sequence of human FcγRIIa, low-affinity R131 variant, on Jurkat/NFAT-Luc effector cells (human) (P12318 other isoform, or with tags, fused parts or gaps mutant limits assumed): as the sequence (P12318 34-317, change not shown) above, with H134R counted along it
# Sequence of mouse FcγRIV on Jurkat/NFAT-Luc effector cells (mouse) (A0A0B4J1G0 21-203): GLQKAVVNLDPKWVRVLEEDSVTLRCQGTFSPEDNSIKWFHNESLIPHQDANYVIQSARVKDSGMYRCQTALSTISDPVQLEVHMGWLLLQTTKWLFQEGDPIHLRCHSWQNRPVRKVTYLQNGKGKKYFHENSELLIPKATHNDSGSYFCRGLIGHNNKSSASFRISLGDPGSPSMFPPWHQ
# Sequence of human FcγRIIb on Jurkat/NFAT-Luc effector cells (human) (P31994 43-310): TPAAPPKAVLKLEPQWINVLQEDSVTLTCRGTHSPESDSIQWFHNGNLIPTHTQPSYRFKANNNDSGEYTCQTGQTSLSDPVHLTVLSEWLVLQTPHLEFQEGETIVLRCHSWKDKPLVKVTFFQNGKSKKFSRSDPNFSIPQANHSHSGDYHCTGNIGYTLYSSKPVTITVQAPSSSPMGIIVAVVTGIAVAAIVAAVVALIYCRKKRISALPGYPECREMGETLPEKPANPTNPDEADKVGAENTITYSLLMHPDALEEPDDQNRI
# Sequence of mouse FcγRIII on Jurkat/NFAT-Luc effector cells (mouse) (P08508 31-261): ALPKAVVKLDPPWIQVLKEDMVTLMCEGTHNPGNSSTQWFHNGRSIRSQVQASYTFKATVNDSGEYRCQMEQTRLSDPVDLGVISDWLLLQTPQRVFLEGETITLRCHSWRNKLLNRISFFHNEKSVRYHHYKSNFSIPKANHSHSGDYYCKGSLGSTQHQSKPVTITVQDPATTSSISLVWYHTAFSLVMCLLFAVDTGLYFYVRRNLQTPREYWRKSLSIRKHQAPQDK
substance,measurement,setting,value
Ipilimumab (antibody),"EC50 (µg/mL), FcR reporter bioassay",[1],0.21 µg/mL
same,"Maximum luminescence (RLU), FcR reporter bioassay",[1],2640 RLU
same,"EC50 (µg/mL), FcR reporter bioassay",[2],2.21 µg/mL
same,"Maximum luminescence (RLU), FcR reporter bioassay",[2],990 RLU
same,"EC50 (µg/mL), FcR reporter bioassay",[3],0.17 µg/mL
same,"Maximum luminescence (RLU), FcR reporter bioassay",[3],5800 RLU
same,"Maximum luminescence (RLU), FcR reporter bioassay",[4],17500 RLU
same,"EC50 (µg/mL), FcR reporter bioassay",[5],0.05 µg/mL
same,"Maximum luminescence (RLU), FcR reporter bioassay",[5],973 RLU
